Experimental findings from patent publication US20260274984A1 (NATIONAL RESEARCH COUNCIL OF CANADA, published 2026) are described below.

Experiment [1] concerns the target T1, human mesothelin on MSLN-positive cells (NCI-H292, SKOV3) (human, UniProt Q13421 296-598).
T1 construct: whole, on cells; Endogenous expression on tumour cell lines; H1581 and Raji cells served as MSLN-negative controls; also called cell surface MSLN
As to the kind of experiment: Mirrorball microplate cytometry on adherent NCI-H292 (MSLN-positive) cells, 2 h; biotinylated VHH detected with streptavidin-PE; MMFI. The protocol:
Cells (5000 cells well-1) were seeded in Nunc® MicroWell 96-well optical bottom plates (Sigma-Aldrich) and incubated at 37° C. in a humidified atmosphere containing 5% CO₂ for 24-48 h. Each anti-MSLN biotinylated VHH was serially diluted in Live Cell Imaging Solution (LCIS; Thermo Fisher) and 50 μL of each Ab variant was added to the assay plate and incubated at 4° C. for 2 h. As positive control, anti-MF-T (human IgG1) monoclonal antibody (NRC-HHT-Montreal) was used. The wells were washed with LCIS, then Biotin-Streptavidin, R-Phycoerythrin Conjugate (SAPE) or donkey anti-Human Alexa Fluor (AF488) (at 3 ug/ml final concentration) was added to the wells and incubated at 4° C. for 1 h. The secondary Ab was removed, the cells were washed with LCIS then 50 μL of DRAQ5 nuclear stain (1 μM prepared in LCIS; Cell Signaling, Danvers, MA, USA) was added to wells and incubated for 10 min at 4° C. […] Data were analyzed using Cellista software (TTP Labtech) and GraphPad Prism 6 software. […]
Cell binding activities of the selected VHHs were examined by Mirrorball where negative-(NCI-H1581) and positive (NCI-H292)-MSLN cells were cultured in 96 well plate and binding of the biotinylated VHHs was detected by Streptaviding-PE conjugate. As positive control, a human IgG1 mAb MF-T was used which was detected by donkey anti-human […].

Experiment [2] has as its target recombinant human mesothelin extracellular domain, isoform 1 (hMSLN-ECD, 10xHis) (human) (UniProt Q13421). Put plainly: SPR (Biacore T200), VHH over immobilized hMSLN-ECD, 1:1 model. For orientation: SPR reads the build-up and loss of mass on a sensor chip optically.
Experiment [3] deals with T2, recombinant mouse mesothelin extracellular domain (mMSLN-ECD) (mouse, UniProt Q61468 298-600, limits assumed).
T2 construct: extracellular domain; also called mouse MSLN; mouse MSLN-ECD
T2 sequence (looked up): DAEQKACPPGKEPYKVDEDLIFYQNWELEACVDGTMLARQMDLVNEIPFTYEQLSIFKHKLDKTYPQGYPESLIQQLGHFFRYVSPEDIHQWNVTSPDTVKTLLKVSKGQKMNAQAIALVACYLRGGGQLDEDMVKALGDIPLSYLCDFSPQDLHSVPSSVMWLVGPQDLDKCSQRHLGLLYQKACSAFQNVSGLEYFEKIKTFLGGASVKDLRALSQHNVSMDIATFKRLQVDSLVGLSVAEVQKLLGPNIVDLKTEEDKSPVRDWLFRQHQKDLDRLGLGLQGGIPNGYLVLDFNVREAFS
Put plainly: SPR, VHH over immobilized mouse MSLN-ECD. The procedure:
For surface Plasmon resonance, as mentioned above selected VHHs were passed though size exclusion columns, Superdex 75 (GE Healthcare), respectively, in 10 mM HEPES, pH 7.4, containing 150 mM NaCl, 3 mM EDTA, and monomeric sdAb fractions were collected and protein concentrations were determined by measuring absorbance at 280 nm (A280). SPR analysis were performed with Biacore T200 instrument (GE Healthcare). All measurements were carried out at 25° C. in 10 mM HEPES, pH 7.4, containing 150 mM NaCl, 3 mM EDTA and 0.005% surfactant P20 (GE Healthcare). Approximately 500 RUs of the recombinant monomeric human and mouse MSLN-ECD (obtained after SEC purification of the MSLN-ECD) were captured on SA sensor chip (GE Healthcare) at a flow rate of 5 uL/min. Various concentration of the monomeric VHHs (20-500 nM) were injected over MSLN-ECD surface, respectively using an SA surface as a reference at a flow rate of 40 μL/min. Surfaces were generated by washing with running buffer. Data were analysed with BIAevaluation 4.1 software.
The monomeric fraction of VHHs obtained by SEC purification were used for SPR experiment where the human or mouse MSLN-ECD was immobilized onto the […] and various VHH concentration (20-500 nM) were passed over the sensor chip. […] All of the data collected fit a 1:1 binding model (Table 3A).

Experiment [4] deals with recombinant human mesothelin extracellular domain, isoform 1 (hMSLN-ECD, 10xHis) (human) (UniProt Q13421). Put plainly: SPR (Biacore T200), VHH over immobilized hMSLN-ECD; no rate constants printed.
Experiment [5] concerns the target human mesothelin on MSLN-positive cells (NCI-H292, SKOV3) (human) (UniProt Q13421). Put plainly: cell-based or functional assay.

T1 sequence (Q13421 other isoform, or with tags, fused parts or gaps limits assumed): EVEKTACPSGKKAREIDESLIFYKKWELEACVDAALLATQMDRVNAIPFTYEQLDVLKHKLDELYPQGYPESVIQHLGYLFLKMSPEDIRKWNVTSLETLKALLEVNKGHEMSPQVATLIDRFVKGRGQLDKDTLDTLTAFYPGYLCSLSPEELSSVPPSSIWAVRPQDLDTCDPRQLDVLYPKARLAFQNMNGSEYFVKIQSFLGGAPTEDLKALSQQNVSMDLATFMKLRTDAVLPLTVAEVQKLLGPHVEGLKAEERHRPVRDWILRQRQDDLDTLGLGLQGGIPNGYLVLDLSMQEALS
human mesothelin on MSLN-positive cells (NCI-H292, SKOV3) (human), sequence (Q13421 other isoform, or with tags, fused parts or gaps limits assumed): as above

B1: hMSLN-TP7-4 (VHH)
VHH: QVQLVGSGGGLVRAGGSLRLSCAGSGLTFGSYAMAWYRQAPGKQRELVASISSRGVTNYADSVEGRFTISRDNAKSTVYLQMNDLKPEDAAVYYCNAKGPFMLREYDYWGQGTQVTVSS
notes: Llama VHH expressed in E. coli BL21(DE3), IMAC purified, monomeric SEC fraction used for SPR; biotinylated form used in the Mirrorball assay; also called VHH # 1
Consider B1, for which the EC50 (read off the curve) – broadly, the concentration that produces a half-maximal response – in experiment [1] is ~1 nM. Further, in experiment [2], the dissociation constant (Kd) (commonly the free concentration of one partner at which half of the binding sites on the other are occupied at equilibrium, for simple one-to-one binding) is 0.225 nM; the koff – broadly, a measure of how fast the partners let go of each other – was determined as 0.000388 s⁻¹; the kon (in general, a measure of how fast the partners come together) was found to be 1.72e+06 M⁻¹ s⁻¹. The Kd in experiment [3] was 300 nM.

B2: hMSLN-TP7-75A (VHH)
VHH: QVQLVESGGGLVQAGGSLSLSCAASGRTFSASAMAWFRQAPGTDREFVAAVAWGGRDTHYADSVKGRFTISMNNAKNTVVLQMNSLKPEDTAVYYCAAGQRGWSHSTSRDYDYWGQGTQVTVSS
notes: Llama VHH expressed in E. coli; also called VHH # 12
In the case of B2, in experiment [2], the Kd is 52 nM, the dissociation rate constant (koff) came out at 0.0305 s⁻¹ and the kon turned out to be 587000 M⁻¹ s⁻¹. The binding result in experiment [3] is “no binding (tested: 20-500 nM)”.

B3: hMSLN-TP7-18 (VHH)
VHH: EVQLVESGGRLVQAGGSLRLSCVASGRAFKWWTMGWFRQAPGKEREFVASISWSDGSTTYGDSVKGRFAISRDNNKNTVYLQMNSLTPEDTAVYYCARYGKDLSGRHSKNVQDYDYWGQGTQVTVSS
notes: Llama VHH expressed in E. coli; also called VHH # 4
As to B3, the koff in experiment [2] turned out to be 0.0138 s⁻¹. For the same molecule, the binding result in experiment [3] is on record as “no binding (tested: 20-500 nM)”.

B4: hMSLN-bioTP7-7 (VHH)
VHH: QVQLVESGGGLVQAGGSLRLSCAASGRTVSTYNMAWFRQAPGKEREIVAVINWTGGSTYYAESVKGRFTISRDNPKNTVYLQMNSLKPEDTAVYYCAATRTSWTENTYWGQGTQVTVSS
modifications: C-terminal His tag and AviTag from vector pMRO; letters not given, left off
notes: Llama VHH expressed in E. coli
For B4, in experiment [2], the Kd was found to be 0.0924 nM, the koff is 0.000351 s⁻¹ and the kon is 3.8e+06 M⁻¹ s⁻¹. For the same molecule, in experiment [3], the Kd is 218 nM.

B5: hMSLN-TP7-9 (VHH)
VHH: DVQLVDSGGGLVQAGGSLRLSCAASGRTVSTYNMAWFRQAPGKEREIVAVINWTGGSTYYAESVKGRFTISGDNPKNTVYLQMNSLKPEDTAVYYCAATRASWTENTYWGQGTQVTVSS
notes: Llama VHH expressed in E. coli; biotinylated form used in the Mirrorball assay; also called VHH # 3
Turning to B5, in experiment [1], the concentration giving a half-maximal response (EC50 (read off the curve)) was ~3 nM. Further, in experiment [2], the Kd worked out at 1.34 nM, the koff turned out to be 0.00238 s⁻¹ and the kon was 1.78e+06 M⁻¹ s⁻¹. The binding result in experiment [3] is “no binding (tested: 20-500 nM)”.

B6: hMSLN-TP7-38A (VHH)
VHH: QVKLEESGGGLVQPGGSLRLSCAASGRTVSAYNMAWFRQAPGKEREIVAVINWTGGGTYYAESVKGRFTISRDNPKNTVYLQMNSLKPEDTAVYYCAATRTSWTENTYWGQGTQVTVSS
notes: Llama VHH expressed in E. coli; also called VHH # 6
In the case of B6, the binding result in experiment [3] is recorded as “no binding (tested: 20-500 nM)”.

B7: hMSLN-bioTP7-48 (VHH)
VHH: QVKLEESGGGLVQPGGSLRLSCTASGSIWSASGLTWYRQRPGNERELVASITTGGETTWYADSVKGRFTISISRDNGKMITYLQMNSLKPEDTAVYLCNSRSYWGQGTQVTVSS
notes: Llama VHH expressed in E. coli; also called VHH # 10
As for B7, the Kd in experiment [4] was 276 nM. Besides, the binding result in experiment [3] is on record as “no binding (tested: 20-500 nM)”.

B8: hMSLN-bioTP7-53 (VHH)
VHH: QVQLVESGGGLVQPGGSLRLACAASGGIGSLSNVRWYRQGPGKEREYVAGITGQSTTYYADSVKGRFTISRDNVKNTVDLQMNSLKPEDTAVYICNVATLRNEYWGQGTQVTVSS
notes: Llama VHH expressed in E. coli; also called VHH # 11
B8: in experiment [2], the Kd turned out to be 0.571 nM, the off-rate (koff) turned out to be 0.000433 s⁻¹ and the kon was 758000 M⁻¹ s⁻¹. In addition, in experiment [3], the binding result is listed as “no binding (tested: 20-500 nM)”.

B9: hMSLN-biomTP7-41 (VHH)
VHH: QVQLVESGGGLVQPGGSLRLSCTASGIVRASGMAWYRQAPGKQRELVASITTGGETTWYADSVKGRFTISIDNAKMMLYLQMNALKPEDTAVYLCNQRSYWGQGTQVTVSS
modifications: C-terminal His tag and AviTag from vector pMRO; letters not given, left off
notes: Llama VHH expressed in E. coli; also called VHH # 9
With B9, the Kd in experiment [4] is 214 nM. For the same molecule, the binding result in experiment [3] is “no binding (tested: 20-500 nM)”.

B10: hMSLN-TP7-5 (VHH)
VHH: QVKLEESGGGLVQAGGSLRISCAASGRSISDYFMGWFRQTPGKEREFVAAISWSGGTAYYADSVKGRFTISRDNAKNTGYLQMNSLKPEDTAVYFCAARLSYDSRTSLQNSYDYNYWGQGTQVTVSS
notes: Llama VHH expressed in E. coli; biotinylated form used in the Mirrorball assay; also called VHH # 2
Turning to B10, the Kd in experiment [2] turned out to be 57.2 nM. Also, the binding result in experiment [3] is reported as “no binding (tested: 20-500 nM)”. In addition, in experiment [5], the EC50 of CD69 staining of Jurkat cells in co-culture with MSLN+ H292 cells stood at 1 nM.

B11: hMSLN-TP7-35 (VHH)
VHH: QVQLVDSGGGLVQPGGSLRLSCTTSASTFRFFAMHWYRQAPGKERELVAVISRDGDAEYVDSVKGRFTISRDNAKNAVYLQMNSLKPEDTAVYYCHTRILSDHYWGQGTQVTVSS
modifications: C-terminal His tag and AviTag from vector pMRO; letters not given, left off
notes: Llama VHH expressed in E. coli; also called VHH # 5
As for B11, the binding result in experiment [3] is “no binding (tested: 20-500 nM)”.

B12: hMSLN-TP7-56 (VHH)
VHH: QVQLVESGGGLVQAGGSLRISCVASGRDFSSHFMGWSRQAPGKEREFVAAISWSGGTTYYADSVKGRFAISRDNDKTTVYLQMNSLKPEDSAVYYCAARRTYDSRTSLRNSYDYPYWGQGTQVTVSS
modifications: C-terminal His tag and AviTag (biotinylated in the Mirrorball assay) from vector pMRO; letters not given, left off
notes: Llama VHH expressed in E. coli; biotinylated form used in the Mirrorball assay; also called VHH # 7
Regarding B12, in experiment [2], the Kd amounted to 26.5 nM, the dissociation rate constant (koff) was 0.0201 s⁻¹ and the kon was 757000 M⁻¹ s⁻¹. The binding result in experiment [3] was “no binding (tested: 20-500 nM)”.

B13: hMSLN-mTP7-82 (VHH)
VHH: QVQLVESGGGLVQAGGSLRLSCAASGSIRSASGMHWYRQAPGKERELVASITTSGETTWYRDSVKGRFTISINNAKMMLYLQMNSLKFEDTAVYYCNLRSYWGQGTQVTVSS
notes: as for B4
Turning to B13, in experiment [2], the Kd was found to be 0.0579 nM, the dissociation rate constant (koff) came out at 0.000176 s⁻¹ and the association rate constant (kon) was 3.04e+06 M⁻¹ s⁻¹. The Kd in experiment [3] turned out to be 145 nM.
